Changes are numbered by the printed parent chain. Blank lines part the entries; values can stand above or below the binder they belong to.
How the values were obtained:
hPD-1-His [1] = molecular target: T1, hPD-1-His (human, UniProt Q15116 25-170, limits assumed); experiment: competition ELISA: plate coated with shPD-1 and shCTLA-4 1:1 (2 ug/ml each); blocked ligand biotin-labeled PD-L1 6 ug/ml, streptavidin-HRP, RLU
T1 construct: also called His-tagged soluble human PD-1; shPD-1
Protocol: (§1) A series of ELISA assays were conducted to evaluate the ability of bispecific molecules of the invention to block ligand binding to PD-1 and […], alone and in combination. […] Plates were coated with a 1:1 mix of His-tagged soluble human PD-1 (shPD-1) and a His-tagged irrelevant antigen (irrAg) (2 μg/ml each), or a 1:1 mix of shPD-1 and a His-tagged soluble human CTLA-4 (shCTLA-4) (2 μg/ml each).

[2] = molecular target: T2, His-tagged soluble human CTLA-4 (human, UniProt P16410 36-161); experiment: competition ELISA: plate coated with shCTLA-4 0.8 ug/ml and shPD-1 3.2 ug/ml (1:4); blocked ligand biotin-labeled B7-1 0.2 ug/ml, streptavidin-HRP, RLU
T2 construct: also called shCTLA-4
T2 sequence: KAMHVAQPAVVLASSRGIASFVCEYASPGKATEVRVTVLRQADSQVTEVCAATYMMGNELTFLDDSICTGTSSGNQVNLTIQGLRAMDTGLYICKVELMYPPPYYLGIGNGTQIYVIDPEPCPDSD
Protocol: (§2) Plates were coated with a 1:1 mix of shCTLA-4 and irrAg (2 μg/ml each), a 1:1 mix of shCTLA-4 shPD-1 (2 μg/ml each), or a 1:4 mix of shCTLA-4 (0.8 μg/ml) and shPD-1 (3.2 μg/ml).

[3] = molecular target: T3, His-tagged soluble cynomolgus monkey CTLA-4 (cynomolgus monkey); experiment: BIACORE, His-tagged soluble cyno CTLA-4 captured on anti-PentaHis, binder passed over at 12.5-200 nM; affinity by 1:1 Langmuir binding model
T3 construct: extracellular domain; also called Cyno CTLA-4
Protocol: (§3) Briefly, His-tagged soluble CTLA-4 (an extracellular portion of human or cynomolgus monkey CTLA-4 fused to a histidine-containing peptide) was captured on immobilized anti-PentaHis and then different concentrations (12.5-200 nM) of the CTLA-4 binding molecules were passed over the immobilized CTLA-4 proteins. The kinetics of binding were determined via BIACORE® analysis (affinity by 1:1 Langmuir binding model (simultaneous ka/kd); or avidity by separate ka/kd 1:1 fit).

[4] = molecular target: T4, PD-1 expressed on the cell surface (human, UniProt Q15116 21-288); experiment: cell-based competition (FACS): blocked ligand PD-L2-PE binding to NSO-PD-1 cells, MFI
T4 construct: also called NSO cells expressing PD-1; NSO-PD-1 cells

[5] = molecular target: T2, His-tagged soluble human CTLA-4; experiment: competition ELISA: plate coated with shCTLA-4 and shPD-1 1:1 (2 ug/ml each); blocked ligand biotin-labeled B7-1 0.2 ug/ml, streptavidin-HRP, RLU
Protocol: as §2

hPD-1-His [6] = molecular target: T1, hPD-1-His; experiment: competition ELISA: plate coated with shPD-1 and irrelevant antigen 1:1 (2 ug/ml each); blocked ligand biotin-labeled PD-L1 6 ug/ml, streptavidin-HRP, RLU
Protocol: as §1

[7] = molecular target: T4, PD-1 expressed on the cell surface; experiment: cell-based competition (FACS): blocked ligand PD-L1-PE binding to NSO-PD-1 cells, MFI
hPD-1-His [8] = molecular target: T1, hPD-1-His; experiment: ELISA: shPD-1-his coated, detection goat anti-human Fc-gamma-HRP 1:10000, chemiluminescence RLU
Source text: (§4) FIGS. 8A-8D show the results of ELISA studies measuring the binding of serially diluted binding molecules to human CTLA-4 and human PD-1. […] Goat anti-human-Fc-HRP (1:10,000) was employed as the secondary detection molecule to detect binding. FIGS. 8C-8D show the results of a study on the effect of altering orientations and binding domains on binding. […] Goat anti-human-Fcγ-HRP was employed as the secondary detection molecule to detect binding using PICO chemiluminescent substrate.

soluble hCTLA-4-Avi-His = molecular target: T5, soluble hCTLA-4-Avi-His (human, UniProt P16410 36-161); experiment: ELISA: shCTLA-4-Avi-His coated at 1 ug/mL, detection goat anti-human Fc-gamma-HRP 1:10000, chemiluminescence RLU
T5 construct: also called soluble human CTLA-4-Avi-His
T5 sequence: T2 sequence
Source text: as §4

[9] = molecular target: T4, PD-1 expressed on the cell surface; experiment: flow cytometry on NSO cells expressing PD-1 but not CTLA-4, MFI (APC)
[10] = molecular target: T6, cynomolgus monkey CTLA-4 expressed on CHO cells (cynomolgus monkey, UniProt G7PL88 36-223); experiment: flow cytometry on CHO cells expressing cynomolgus monkey CTLA-4, anti-human Fc secondary antibody, GMFI
T6 construct: also called cynoCTLA-4
T6 sequence: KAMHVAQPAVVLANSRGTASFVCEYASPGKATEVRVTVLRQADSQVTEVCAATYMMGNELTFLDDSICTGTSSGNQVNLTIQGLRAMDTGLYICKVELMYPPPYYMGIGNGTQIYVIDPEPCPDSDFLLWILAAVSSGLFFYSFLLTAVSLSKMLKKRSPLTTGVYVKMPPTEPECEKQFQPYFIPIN

[11] = molecular target: T3, His-tagged soluble cynomolgus monkey …; experiment: BIACORE, His-tagged soluble cyno CTLA-4 captured on anti-PentaHis, binder passed over at 12.5-200 nM; avidity by separate ka/kd 1:1 fit
Protocol: as §3

[12] = molecular target: T7, human CTLA-4 expressed on the cell surface (human, UniProt P16410 36-223); experiment: flow cytometry on CHO cells expressing human CTLA-4, anti-human Fc secondary antibody, GMFI
T7 construct: also called huCTLA-4; CHO cells expressing human CTLA-4
T7 sequence: T6 sequence with N14S, T18I, M106L

[13] = molecular target: T7, human CTLA-4 expressed on the cell …; experiment: cell-based competition: blocked ligand His-B7-2 116.8 ng/ml binding to CTLA-4 Jurkat cells, detected with anti-His antibody, GMFI-APC
[14] = molecular target: T7, human CTLA-4 expressed on the cell …; experiment: cell-based competition: blocked ligand His-B7-1 10 ng/ml binding to CTLA-4 Jurkat cells, detected with anti-His antibody, GMFI-APC

B2: DART B (bispecific antibody)
chain 1: not shown
chain 2: EIVLTQSPATLSLSPGERATLSCRASESVDNYGMSFMNWFQQKPGQPPKLLIHAASNQGSGVPSRFSGSGSGTDFTLTISSLEPEDFAVYFCQQSKEVPYTFGGGTKVEIKGGGSGGGGQVQLVESGGGVVQPGRSLRLSCAASGFTFSSYTMHWVRQAPGKGLEWVTFISYDGNNKYYADSVKGRFTISRDNSKNTLYLQMNSLRAEDTAIYYCARTGWLGPFDYWGQGTLVTVSSGGCGGGKVAACKEKVAALKEKVAALKEKVAALKE
notes: Four-chain Fc diabody, PD-1 mAb 6-ISQ x CTLA-4 mAb 1, IgG4 (YTE), E/K-coils; two sites for PD-1 and two for CTLA-4
EC50 (read off the curve) (hPD-1-His [8]): ~0.5 nM

B5: CTLA-4 mAb 1 (antibody, IgG1, V domains shown)
VH: QVQLVESGGGVVQPGRSLRLSCAASGFTFSSYTMHWVRQAPGKGLEWVTFISYDGNNKYYADSVKGRFTISRDNSKNTLYLQMNSLRAEDTAIYYCARTGWLGPFDYWGQGTLVTVSS
VL: not shown
notes: IgG1, natural antibody structure; also called ipilimumab replica
Kd [11]: 1.3 nM

Other lines, results leading:

IC50 (read off the curve) (hPD-1-His [1]): ~1 nM | IC50 (read off the curve) [2]: ~3 nM | Kd [3]: 260 nM | IC50 (read off the curve) [4]: ~1 nM | IC50 (read off the curve) [5]: ~10 nM | IC50 (read off the curve) (hPD-1-His [6]): ~1 nM | IC50 (read off the curve) [7]: ~0.8 nM
B1: TRIDENT A (bispecific antibody, human IgG4 S228P, kappa)
chain 1: EIVLTQSPATLSLSPGERATLSCRASESVDNYGMSFMNWFQQKPGQPPKLLIHAASNQGSGVPSRFSGSGSGTDFTLTISSLEPEDFAVYFCQQSKEVPYTFGGGTKVEIKGGGSGGGGQVQLVQSGAEVKKPGASVKVSCKASGYSFTSYWMNWVRQAPGQGLEWIGVIHPSDSETWLDQKFKDRVTITVDKSTSTAYMELSSLRSEDTAVYYCAREHYGTSPFAYWGQGTLVTVSSGGCGGGEVAACEKEVAALEKEVAALEKEVAALEKESKYGPPCPPCPAPEFLGGPSVFLFPPKPKDTLYITREPEVTCVVVDVSQEDPEVQFNWYVDGVEVHNAKTKPREEQFNSTYRVVSVLTVLHQDWLNGKEYKCKVSNKGLPSSIEKTISKAKGQPREPQVYTLPPSQEEMTKNQVSLWCLVKGFYPSDIAVEWESNGQPENNYKTTPPVLDSDGSFFLYSRLTVDKSRWQEGNVFSCSVMHEALHNHYTQKSLSLSLG
chain 2: EIVLTQSPATLSLSPGERATLSCRASESVDNYGMSFMNWFQQKPGQPPKLLIHAASNQGSGVPSRFSGSGSGTDFTLTISSLEPEDFAVYFCQQSKEVPYTFGGGTKVEIKGGGSGGGGQVQLVQSGAEVKKPGASVKVSCKASGYSFTSYWMNWVRQAPGQGLEWIGVIHPSDSETWLDQKFKDRVTITVDKSTSTAYMELSSLRSEDTAVYYCAREHYGTSPFAYWGQGTLVTVSSGGCGGGKVAACKEKVAALKEKVAALKEKVAALKE
chain 3: QVQLVESGGGVVQPGRSLRLSCAASGFTFSSYTMHWVRQAPGKGLEWVTFISYDGSNKHYADSVKGRFTVSRDNSKNTLYLQMNSLRAEDTAIYYCARTGWLGPFDYWGQGTLVTVSSASTKGPSVFPLAPCSRSTSESTAALGCLVKDYFPEPVTVSWNSGALTSGVHTFPAVLQSSGLYSLSSVVTVPSSSLGTKTYTCNVDHKPSNTKVDKRVESKYGPPCPPCPAPEFLGGPSVFLFPPKPKDTLYITREPEVTCVVVDVSQEDPEVQFNWYVDGVEVHNAKTKPREEQFNSTYRVVSVLTVLHQDWLNGKEYKCKVSNKGLPSSIEKTISKAKGQPREPQVYTLPPSQEEMTKNQVSLSCAVKGFYPSDIAVEWESNGQPENNYKTTPPVLDSDGSFFLVSRLTVDKSRWQEGNVFSCSVMHEALHNRYTQKSLSLSLG
chain 4: not shown
notes: Four-chain trivalent molecule: two PD-1 sites (PD-1 mAb 6-ISQ, diabody type), one CTLA-4 site (CTLA-4 mAb 3, Fab type), knob/hole IgG4 (YTE)

EC50 (read off the curve) (hPD-1-His [8]): ~0.5 nM | EC50 (read off the curve) (soluble hCTLA-4-Avi-His): ~0.4 nM
B3: DART C (bispecific antibody)
chain 1: not shown
chain 2: B2 chain 2 with N175S, Y178H, I189V
notes: Four-chain Fc diabody, CTLA-4 mAb 3 x PD-1 mAb 6-ISQ, IgG4 Fc, E/K-coils

EC50 (read off the curve) [9]: ~1 nM | EC50 (read off the curve) [10]: ~2 nM | EC50 (read off the curve) (hPD-1-His [8]): ~0.5 nM | Kd [11]: 4.9 nM | EC50 (read off the curve) [12]: ~2 nM | IC50 (read off the curve) [4]: ~1 nM | IC50 (read off the curve) [13]: ~5 nM | IC50 (read off the curve) [14]: ~4 nM | IC50 (read off the curve) (hPD-1-His [6]): ~0.8 nM | IC50 (read off the curve) [7]: ~0.8 nM
B4: DART D (bispecific antibody, human IgG4 S228P)
chain 1: EIVLTQSPATLSLSPGERATLSCRASESVDNYGMSFMNWFQQKPGQPPKLLIHAASNQGSGVPSRFSGSGSGTDFTLTISSLEPEDFAVYFCQQSKEVPYTFGGGTKVEIKGGGSGGGGQVQLVESGGGVVQPGRSLRLSCAASGFTFSSYTMHWVRQAPGKGLEWVTFISYDGSNKHYADSVKGRFTVSRDNSKNTLYLQMNSLRAEDTAIYYCARTGWLGPFDYWGQGTLVTVSSGGCGGGEVAACEKEVAALEKEVAALEKEVAALEKESKYGPPCPPCPAPEFLGGPSVFLFPPKPKDTLYITREPEVTCVVVDVSQEDPEVQFNWYVDGVEVHNAKTKPREEQFNSTYRVVSVLTVLHQDWLNGKEYKCKVSNKGLPSSIEKTISKAKGQPREPQVYTLPPSQEEMTKNQVSLTCLVKGFYPSDIAVEWESNGQPENNYKTTPPVLDSDGSFFLYSRLTVDKSRWQEGNVFSCSVMHEALHNHYTQKSLSLSLG
chain 2: not shown
notes: Four-chain Fc diabody, PD-1 mAb 6-ISQ x CTLA-4 mAb 3, IgG4 (YTE), E/K-coils
